Data from the domain aggregation screens of Martell et al. (2025).

Experiment: soluble fraction after stress (log2 fold change); higher = more stays soluble; pooled small domains, quantitative proteomics
Conditions: stress: 75 degC
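Note: 20 min heating vs room temperature control held 20 min.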

Row | Sequence | soluble fraction (log2)
1 | HMRVDRSALDSIPGVGPGRKRTLLHHFGSARAVEASGLADLESIRGISKALARKIYDFFHPE | -1.55
2 | HMRVELVVVPELRQQLLPEARELANSAGLQLRVRGQSPADETRTIVVTQSPAAGTRVAARSIVLVE | -1.12
3 | HMRVPTVIGMDEGTAKATLANASLKSNIVYESDETKENGKVLSQGIEQNKEVKAGTTVEIKVNKIE | 0.116
4 | HMRVTEVSYDKFLDMLSGGQVTVVELQENERELYFKAADENGAERIYSTGVFPDADLQKRLSESGVTF | -0.14
5 | HMRYLHTMIRVSDLEESLNFFKLLDIHEVSRKENEQARFTLVFLSATGDEKLVENAKSPLIELTFN | -0.0509
6 | HMRYLMPDLVNRRYEPVRSLLEARGIRFGNVIFEPYEGLPPGIVLRQDPPAGHPLPRRRTVSLVVSGPGGR | -2.56
7 | HMRYQIAEARKLRDITQAELAEKMGTTQQTIQRYETNQVNIRMDKMIEMSEILNVSLAYLLGMSSSPEL | -1.78
8 | HMRYVVQVATFSSKNNAIRAADDLAGFVVVSNGYYRVRTGPYADRGEANAALAKARKAGYTDAFVDTS | -2.19
9 | HMSAAYVYVTGTRVNQRDGPSTFDRVMGVLVEGTRVQLLRDQGQWAQIRSDLGTGWLSSGFLSRNG | -1.88
10 | HMSADKAEAAEASLKSFNLRLQAAAMEAGKTFAPVTADQYAEYKAAWGTYIRKGIEGLSESEKKTINVG | -0.243
11 | HMSAETREELVGREGVSLTDLRPSGFALFGQEKIDVVSESEFIEEGTSVRIVSVEGSRHIVRAKR | -0.0724
12 | HMSAISSARKEKIIEYLTDHGSARSSEIAEYVDLRPSRVRDYLGELVREDIVVAEGANRNRTYRLK | -0.0533
13 | HMSAPGYRAVYPGMLESERQTAYELLSSSGFDVKINTSSGELEVTTDRYHEARMVMASQNIPK | -0.137
14 | HMSAPVFRITPAGVVVNGLKRSDILTLTRIDGAMNTLPHNAGEVLVSTEGLAKGVYVITAGGKSLKFLV | -1.85
15 | HMSAQPMEYSRFYSDVTQGRVAEVEIEGREINGRLSTGERFKTFSPETDNKALIGHLLDNGVVIEGKPP | 0.255
16 | HMSASEKLFEARKNLNIVNVLGKNPVDRYDIVKILKHGDHYHIYDSKGNEGITYTNPKSLYPEAEFGEYQG | -0.0642
17 | HMSASTGTVSYKSGATTVWNSPSWHQVKRYVTFGDTVQLLGKTVDQNGATWYKVGDNQWIPELYLNVAG | -0.725
18 | HMSATEPVHFDPNKSPEDMTVEELQAGILAKMANNGPVSDQMKKTVNENIWHDSLVNWLKSF | -0.164
19 | HMSATPQRMSIINELDSARKNLSAYDLRDSLKDKGHSFNISTIYRVLSFWIDVGVVHKMDSSNTYL | -0.111
20 | HMSATVLVHVLGEVRKPGVVSLPEGSRVQDAITAAGGLTSRAKPGDLNLAARVSDGAQLVIGRSGSQVRTT | -0.306
21 | HMSAVVAPLPGLIQNILVKVGDTVHAGQHVLTMEAMKMENEIQTNRDGIIKDIKVRIGDSVNEGDTLIIL | 0.0725
22 | HMSDAGAIEPTIKEILASNPKAVEEYLAGNIKNINALIGQSMKALHGKADPQTVRNLLAKLLDEM | -0.252
23 | HMSDAIQLEQKIGLEAIEWYLALSEQTDDKLLYQQWQSWLAADPQHQLAWSRIEQVNHGLNTL | -1.03
24 | HMSDAVQLGLRLRAARERRGLSQQAVADALGLPRTAVTNMESGNRAVSTLELTKLAALYGQSTAFFLSP | -1.19
25 | HMSDDVELLGRLSDREVSVLQYLSQGYSNKQISEQMFISNKTVSTYKARLLLKLNAGSLVDLIEFAKRNTL | -1.35
26 | HMSDEINYVIQINGKNRAEAEFGANLDKESIENLALEHERIKELLNGLTVRKIIVVPKKLVNIVA | -0.556
27 | HMSDESALLELVKQIIADNPKAVEEIRAGKEKAMGFLIGQAMKASRGSANPQIISRLVREQLG | 0.57
28 | HMSDFDPTLILDLIKGSGEALTKREIARALGIKGGDKRIELKSHLKSMEAEGVIVKQAGGAYSVP | -0.132

Row | Sequence | soluble fraction (log2)
29 | HMSDFSNLNLLELNSSELDLLLRRASSQGLTQMDLLKMARSQGLSEADLIKVKGKIDTSESIKR | 0.076
30 | HMSDFSSNLRRLRKRAGLSQDALAEKLSVARQTVSSWERGNSYPDLDMLVRISDALATDPNELLYPN | -0.167
31 | HMSDGDFLQKIAEEILAQFPDKVKEYQKGKKGLIGFFMGELMKRSKGKADPKVATRILEEILSEKNGSS | -0.0745
32 | HMSDGTVYGSDGVIKVNLPQSGMLRIYATDGTTLVNRWQAAGIDTISMPRGLYIVRFDNQVWKVVV | -1.65
33 | HMSDHSSLAGKEGVAVTPLRPAGTAEIDGKRMDVVTMGDYIKAGDHIKVVKVEGNRIIVAKN | 0.0173
34 | HMSDHYEVLGVDRNATDDQIKKAYRRLARELHPDVNDAPESQEKFKLVTHAYEVLSDPDERRKYDMG | -0.0229
35 | HMSDIYSLFERELGRTLSSYEYEIIGKWIEKGVSEDTIKRALKEAILNGVTNFKYIDKIIYDWSKN | -0.622
36 | HMSDLFKYSPYKTLTEEQYKITYQIIERLKTDLSNGIPRISIIDGGAGTGKSILGIFLLKLLVDAQN | 0.353
37 | HMSDNLSASERKALSHMEGMESVRSSEVADLLGMSQRGAQKLLNRLVDKGLASSFGANRNRRYSVE | 0.144
38 | HMSDNLTIVRAVYSGLSQRQAAATYHVSRNTVSLLLRHARNRGWLTLEDLAQLDNAAFSKSL | -4.32
39 | HMSDPFSPTTTLKNRAKSVLSVDSFEDFKLFIKKMWQEKKEGVYQNPNVETWKDWDNISVKDAKILISLI | -1.45
40 | HMSDPHEELMSRIARDLSIPLTRVVAEMNTIISKEFGGHIRPEGAVVILAKRSGVEFSDLLPALRENILK | -1.92
41 | HMSDQIQQIAERIAGLRDIAGYSVEELARELGISAEEYKRYESGEVDIPIGFLYKLANKYNVELTAILT | -0.289
42 | HMSDRFLDQEGVALSTLRPSGTVVLDSGEHLDVVTRGEFIEQGERVKVIKAESTWYVVEQIN | 0.112
43 | HMSDRLRLGRRIRAARLEQNLSQAALAERLGISASYLNLLEHDRRSLTTVLLLKLAQVLGLELRDLAAG | -2.49
44 | HMSDRLRPGDMVVVVGKKKRYPVFSAFDIDFVEAGDVGKVLTVKREEVVVGFPKKGEGTFTPSELNIAH | -1.18
45 | HMSDTGQELHDALNMARRTLTILEEQAAGYTALTIPARLVLELEEKRKDVVRLETQIRSAATGTPG | -0.649
46 | HMSDTLPRLLWNFQMAKRLDEMNGAEKRRYQLVLIHPQASEKERDYASSFAHQARMLGIEVAIRDS | -0.395
47 | HMSDVVFRINANGLNVSGLANGERVSVYDTTGKLVTTAVSTQDNGTLNLPLKQSGGIYIARTQSGVSFKFT | -0.786
48 | HMSDYKSYLQELVQTDKKSLSYNVVKETGPAHDKTFEVEVEVDGIIYAHGVGKSKKEAEQNAAKNAIMISA | 0.3
49 | HMSDYLGSLSHEEKMIFNHFDEDSSTIENMAKKTELKPELISQIFLNLELRGFLRQTEGGLYEKI | -0.43
50 | HMSDYYEVLGVTRQADAEEIKRAYRRKARQLHPDVAGPGHEEEFKEVTVAYEVLSDPEKRQAYDLGGQDAL | 0.0155
51 | HMSEDAVKFRAAVEVENGLAQRNLNKNQAALILGVDRSYFTYIISGKKTPSPDMAKRIGLLLGFDWRVFYA | -1.89
52 | HMSEEIKVPNFVGSTFEKAQALAQETGLEIARGEDVYSPDQEEGKITSQNPTADSVVSPGKLITVYVSKG | 0.385
53 | HMSEIKDRLREARRNKGLSQAGLSKLLGVSQASIAAIESGRNKRPTNLVSIAKALDVSPYWLETGK | -0.229
54 | HMSEITQTLSMIGKEVTLEIPDEKDKTKTTEVKGIVTEASFKDGTGKVKVNGEYYSIAYITSIRDT | ≥ 1.04
55 | HMSEIVEEQNTKLKQAVSKLSKRQQEVLYLKFEEGLDYEQISKIMDLKYQSVRNLVSTAIIKIKEH | -2.72
